Measured values from patent US20090155251A1 (published 2009).

T1: Mouse EphB4/Fc (R&D Systems) (mouse, UniProt P54761 16-539, limits assumed)
T1 construct: Bought reagent; also called EphB4/Fc fusion protein; not shown: Fc part, detected with anti-human Fc/IgG-FITC
T1 sequence (looked up): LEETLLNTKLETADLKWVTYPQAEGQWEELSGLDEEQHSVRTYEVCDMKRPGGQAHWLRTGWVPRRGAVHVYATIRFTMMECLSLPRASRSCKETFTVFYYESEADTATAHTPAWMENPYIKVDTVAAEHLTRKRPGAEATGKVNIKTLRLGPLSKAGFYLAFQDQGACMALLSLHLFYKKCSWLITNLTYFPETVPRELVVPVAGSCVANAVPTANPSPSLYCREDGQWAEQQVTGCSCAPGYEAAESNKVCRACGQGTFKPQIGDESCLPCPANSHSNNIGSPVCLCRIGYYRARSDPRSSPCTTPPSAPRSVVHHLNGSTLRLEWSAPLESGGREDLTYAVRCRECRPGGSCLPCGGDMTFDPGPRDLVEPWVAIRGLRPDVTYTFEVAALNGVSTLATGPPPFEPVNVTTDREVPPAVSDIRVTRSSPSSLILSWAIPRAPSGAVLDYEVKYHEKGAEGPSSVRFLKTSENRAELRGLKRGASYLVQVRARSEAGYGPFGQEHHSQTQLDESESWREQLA

T2: B4EC-NT (soluble EphB4 extracellular domain without epitope or purification tags) (human, UniProt P54760 16-539)
T2 construct: extracellular domain; also called EphB4ECnt; B4ECv3NT
T2 sequence (looked up): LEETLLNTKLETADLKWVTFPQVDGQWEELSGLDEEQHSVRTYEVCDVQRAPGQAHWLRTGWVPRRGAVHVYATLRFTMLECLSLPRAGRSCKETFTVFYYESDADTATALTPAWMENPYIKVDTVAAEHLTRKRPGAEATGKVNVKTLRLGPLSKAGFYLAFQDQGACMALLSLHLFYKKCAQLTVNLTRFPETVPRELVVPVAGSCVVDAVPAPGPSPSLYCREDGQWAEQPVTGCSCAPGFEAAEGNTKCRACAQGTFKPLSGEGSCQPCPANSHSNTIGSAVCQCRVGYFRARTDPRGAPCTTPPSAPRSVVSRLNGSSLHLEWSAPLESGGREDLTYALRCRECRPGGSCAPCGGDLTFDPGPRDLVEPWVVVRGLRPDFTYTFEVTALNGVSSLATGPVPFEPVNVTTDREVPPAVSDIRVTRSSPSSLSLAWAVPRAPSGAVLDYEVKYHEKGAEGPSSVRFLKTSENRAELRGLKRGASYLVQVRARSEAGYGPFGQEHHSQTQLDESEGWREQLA

T3: B4ECv3 (soluble EphB4 extracellular domain with C-terminal V5 epitope tag and 6xHis tag) (human, UniProt P54760 16-537)
T3 construct: also called EphB4ECv3; GCF2 (v.3)
T3 sequence: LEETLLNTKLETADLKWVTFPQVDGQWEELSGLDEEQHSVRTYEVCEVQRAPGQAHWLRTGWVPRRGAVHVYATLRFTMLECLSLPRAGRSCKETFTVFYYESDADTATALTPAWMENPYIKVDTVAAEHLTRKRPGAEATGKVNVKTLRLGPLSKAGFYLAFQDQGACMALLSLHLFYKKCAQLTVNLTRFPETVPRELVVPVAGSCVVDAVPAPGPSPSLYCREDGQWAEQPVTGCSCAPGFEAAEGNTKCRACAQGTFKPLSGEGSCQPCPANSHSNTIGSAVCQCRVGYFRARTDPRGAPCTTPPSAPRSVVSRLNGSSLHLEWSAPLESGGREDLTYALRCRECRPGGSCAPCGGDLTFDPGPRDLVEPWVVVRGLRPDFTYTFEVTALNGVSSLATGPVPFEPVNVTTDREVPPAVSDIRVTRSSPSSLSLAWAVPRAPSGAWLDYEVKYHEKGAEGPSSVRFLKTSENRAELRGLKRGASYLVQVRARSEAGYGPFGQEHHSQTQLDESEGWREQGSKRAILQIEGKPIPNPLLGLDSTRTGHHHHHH

T4: B4-CF2 (EphB4 extracellular domain with deleted globular domain: Cys-rich and two FNIII domains, V5 and 6xHis … (human, UniProt P54760 16-537))
T4 sequence: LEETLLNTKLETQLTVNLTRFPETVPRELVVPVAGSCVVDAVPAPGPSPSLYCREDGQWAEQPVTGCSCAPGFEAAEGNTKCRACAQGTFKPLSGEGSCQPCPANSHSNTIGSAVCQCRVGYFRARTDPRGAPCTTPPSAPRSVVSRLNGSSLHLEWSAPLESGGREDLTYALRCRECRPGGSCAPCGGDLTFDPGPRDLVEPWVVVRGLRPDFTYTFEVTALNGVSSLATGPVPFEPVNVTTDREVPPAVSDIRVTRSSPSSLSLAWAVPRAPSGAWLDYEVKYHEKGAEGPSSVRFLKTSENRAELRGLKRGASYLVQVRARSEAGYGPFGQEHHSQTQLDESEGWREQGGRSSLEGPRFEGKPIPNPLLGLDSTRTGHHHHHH

T5: B4-GC (EphB4 globular domain + Cys-rich domain, C-terminal 6xHis) (human, UniProt P54760 16-326)
T5 construct: Printed mature EphB4 part counts 311 residues, the text says 1-312; also called B4EC-GC
T5 sequence: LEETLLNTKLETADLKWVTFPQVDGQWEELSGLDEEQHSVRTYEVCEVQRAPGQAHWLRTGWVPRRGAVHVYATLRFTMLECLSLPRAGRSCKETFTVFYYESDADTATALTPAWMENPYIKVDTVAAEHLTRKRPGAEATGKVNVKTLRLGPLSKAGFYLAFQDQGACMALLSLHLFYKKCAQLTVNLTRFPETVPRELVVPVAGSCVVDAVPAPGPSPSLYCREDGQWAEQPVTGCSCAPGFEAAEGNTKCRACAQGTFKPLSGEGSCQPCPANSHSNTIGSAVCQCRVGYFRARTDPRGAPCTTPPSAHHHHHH

T6: B4-GCF2 (recombinant soluble EphB4 extracellular domain: globular, Cys-rich and two FNIII domains, C-terminal … (human, UniProt P54760 16-537))
T6 construct: Expressed in HEK293T, glycosylated
T6 sequence: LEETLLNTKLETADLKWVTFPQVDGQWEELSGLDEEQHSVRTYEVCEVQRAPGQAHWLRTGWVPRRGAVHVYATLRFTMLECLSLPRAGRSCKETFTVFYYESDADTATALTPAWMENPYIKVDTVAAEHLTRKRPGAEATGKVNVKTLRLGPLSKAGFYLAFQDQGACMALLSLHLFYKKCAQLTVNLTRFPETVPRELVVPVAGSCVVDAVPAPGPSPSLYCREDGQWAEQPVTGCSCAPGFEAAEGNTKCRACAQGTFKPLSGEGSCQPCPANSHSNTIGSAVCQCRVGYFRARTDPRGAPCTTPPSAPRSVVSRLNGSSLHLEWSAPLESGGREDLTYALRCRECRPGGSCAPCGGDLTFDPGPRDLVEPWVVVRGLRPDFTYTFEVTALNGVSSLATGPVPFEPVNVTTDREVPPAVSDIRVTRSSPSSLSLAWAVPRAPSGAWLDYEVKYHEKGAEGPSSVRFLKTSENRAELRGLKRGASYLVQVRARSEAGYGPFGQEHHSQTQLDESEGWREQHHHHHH

T7: B4ECv3-FC (EphB4 extracellular domain fused to human IgG1 Fc) (human, UniProt P54760 16-539)
T7 construct: extracellular domain; also called B4EC-FC; not shown: Fc portion of human IgG1 (pIG vector)
T7 sequence (looked up): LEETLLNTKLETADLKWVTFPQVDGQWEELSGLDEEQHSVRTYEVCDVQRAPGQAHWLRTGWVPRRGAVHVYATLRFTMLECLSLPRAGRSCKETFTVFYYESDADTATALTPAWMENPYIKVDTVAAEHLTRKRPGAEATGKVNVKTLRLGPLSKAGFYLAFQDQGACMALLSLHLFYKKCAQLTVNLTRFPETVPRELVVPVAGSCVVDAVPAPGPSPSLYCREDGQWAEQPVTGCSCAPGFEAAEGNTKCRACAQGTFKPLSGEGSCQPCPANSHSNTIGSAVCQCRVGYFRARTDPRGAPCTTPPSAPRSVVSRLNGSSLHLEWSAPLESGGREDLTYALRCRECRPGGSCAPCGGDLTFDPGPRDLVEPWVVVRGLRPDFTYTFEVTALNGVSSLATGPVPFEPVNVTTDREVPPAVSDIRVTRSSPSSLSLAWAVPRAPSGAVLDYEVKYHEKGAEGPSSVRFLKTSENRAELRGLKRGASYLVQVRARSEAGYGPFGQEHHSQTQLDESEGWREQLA


How the values were obtained:
[1] = biological target: T1, Mouse EphB4/Fc (R&D Systems); test: immunofluorescence on frozen KS biopsy sections, 5 ug/ml EphB4/Fc
Protocol: Immunofluorescence detection of EphrinB2 with EPHB4-Fc was done as follows. Frozen sections fixed in 4% paraformaldehyde and blocked with 20% FBS were incubated with 5 μg/ml EphB4/Fc (R&D Systems) for 1 h at RT. Sections were then incubated with 10 μg/ml rabbit anti-human IgG-FITC in PBS (Jackson ImmunoResearch Laboratories West Grove, Pa.) at RT for 1 hour. Nuclei were counterstained with DAPI and sections mounted as above. Human Fc (Jackson ImmunoResearch) was used as the negative control.

[2] = biological target: T2, B4EC-NT (soluble EphB4 extracellular …); test: B2EC-AP binding and competition assays on conditioned media of stable cell lines
[3] = biological target: T3, B4ECv3 (soluble EphB4 extracellular …); test: biochemical assays: Ni-NTA bead binding of B2-AP; inhibition in solution and cell based
Protocol: 10 μl of Ni-NTA-Agarose were incubated in microcentrifuge tubes with 50 μl of indicated amount of B4ECv3 diluted in binding buffer BB (20 mM Tris-HCl, 0.15 M NaCl, 0.1% bovine serum albumin pH 8) After incubation for 30 min on shaking platform, Ni-NTA beads were washed twice with 1.4 ml of BB, followed by application of 50 μl of B2-AP in the final concentration of 50 nM. Binding was performed for 30 min on shaking platform, and then tubes were centrifuged and washed one time with 1.4 ml of BB. Amount of precipitated AP was measured colorimetrically after application of PNPP.
Inhibition in solution. Different amounts of B4ECv3 diluted in 50 μl of BB were pre-incubated with 50 μl of 5 nM B2EC-AP reagent (protein fusion of Ephrin B2 ectodomain with placental alkaline phosphatase). After incubation for 1 h, unbound B2EC-AP was precipitated with 5,000 HEK293 cells expressing membrane-associated full-length EphB4 for 20 min. Binding reaction was stopped by dilution with 1.2 ml of BB, followed by centrifugation for 10 min. Supernatants were discarded and alkaline phosphatase activities associated with collected cells were measured by adding para-nitrophenyl phosphate (PNPP) substrate.
Cell based inhibition. B4ECv3 was serially diluted in 20 mM Tris-HCl, 0.15 M NaCl, 0.1% BSA, pH 8 and mixed with 5,000 HEK293 cells expressing membrane-associated full-length Ephrin B2. […]

[4] = biological target: T4, B4-CF2 (EphB4 extracellular domain with …); test: Ephrin B2-AP binding to B4 proteins immobilized on Ni resin or nitrocellulose membrane
Protocol: (§1) To confirm ability of the purified recombinant proteins to bind Ephrin B2, they were tested in an in vitro binding assay. As expected, GC, GCF1 and GCF2, but not CF2 are binding the cognate ligand Ephrin B2 as confirmed by interaction between Ephrin B2—alkaline phosphatase (Ephrin B2-AP) fusion protein with the B4 proteins immobilized on Ni²⁺-resin or on nitrocellulose membrane (FIG. 17).
(§2) To test ligand binding properties of the proteins, 10 μl of Ni-NTA-Agarose (Qiagen) were incubated in microcentrifuge tubes with 10-500 ng sample of a B4-ECD protein diluted in 0.5 ml of binding buffer BB (20 mM Tris-HCl, 0.15 M NaCl, 0.1% bovine serum albumin, pH 8). After incubation for 30 min on shaking platform, Ni-NTA beads were washed twice with 1.4 ml of BB, followed by addition of B2-AP fusion protein at concentration of 50 nM. Binding was performed for 30 min on a shaking platform. Tubes were centrifuged and washed once with 1.4 ml of BB. Amount of precipitated AP was measured colorimetrically at 420 nm after application of p-nitrophenyl phosphate (PNPP) and incubation for 5-30 min.

[5] = biological target: T5, B4-GC (EphB4 globular domain + Cys-rich …); test: as above
Protocol: as §1, §2

[6] = biological target: T6, B4-GCF2 (recombinant soluble EphB4 …); test: as above
Protocol: as §1, §2

[7] = biological target: T7, B4ECv3-FC (EphB4 extracellular domain …); test: biochemical assays: Protein A-agarose and nitrocellulose binding of B2EC-AP; inhibition assays (FIGS. 6-7)
Protocol: Protein A-agarose based assay. 10 μl of Protein A-agarose were incubated in Eppendorf tubes with 50 μl of indicated amount of B4EC-FC diluted in binding buffer BB (20 mM Tris-HCl, 0.15 M NaCl, 0.1% BSA pH 8). After incubation for 30 min on shaking platform, Protein AAagarose beads were washed twice with 1.4 ml of BB, followed by application of 50 μl of B2ECAP reagent at the final concentration of 50 nM. Binding was performed for 30 min on shaking platform, and then tubes were centrifuged and washed once with 1.4 ml of BB. Colorimetric reaction of precipitated AP was measured after application of PNPP (FIG. 6).
Nitrocellulose based assay. B4EC-FC was serially diluted in 20 mM Tris-HCl, 0.15 M NaCl, 50 μg/ml BSA, pH 8. 2 μl of each fraction were applied onto nitrocellulose strip and spots were dried out for 3 min. Nitrocellulose strip was blocked with 5% non-fat milk for 30 min, followed by incubation with 5 nM B2EC-AP reagent. After 45 min incubation for binding, nitrocellulose was washed twice with 20 mM Tris-HCl, 0.15 M NaCl, 50 μg/ml BSA, pH 8 and color was developed by application of alkaline phosphatase substrate Sigma Fast (Sigma).

Binder	binding result [1]	binding result [2]	binding result [3]	binding result [4]	binding result [5]	binding result [6]	binding result [7]
ephrin B2 on tumor cells of human Kaposi's sarcoma biopsy sections (ligand, UniProt P52799 28-333, looked up, whole, on cells) IVLEPIYWNSSNSKFLPGQGLVLYPQIGDKLDIICPKVDSKTVGQYEYYKVYMVDKDQADRCTIKKENTPLLNCAKPDQDIKFTIKFQEFSPNLWGLEFQKNKDYYIISTSNGSLEGLDNQEGGVCQTRAMKILMKVGQDASSAGSTRNKDPTRRPELEAGTNGRSSTTSPFVKPNPGSSTDGNSAGHSGNNILGSEVALFAGIASGCIIFIVIIITLVVLLLKYRRRHRKHSPQHTTTLSLSTLATPKRSGNNNGSEPSDIIIPLRTADSVFCPHYEKVSGDYGHPVYIVQEMPPQSPANIYYKV	binds						
Ephrin B2-alkaline phosphatase (Ephrin B2-AP) fusion protein: Ephrin B2 ectodomain fused with placental alkaline phosphatase (ligand, human, UniProt P52799 28-229, looked up, extracellular domain; Secreted reagent; also called B2EC-AP; B2ECAP; not shown: placental alkaline phosphatase of vector pAPTag2 (GenHunter)) IVLEPIYWNSSNSKFLPGQGLVLYPQIGDKLDIICPKVDSKTVGQYEYYKVYMVDKDQADRCTIKKENTPLLNCAKPDQDIKFTIKFQEFSPNLWGLEFQKNKDYYIISTSNGSLEGLDNQEGGVCQTRAMKILMKVGQDASSAGSTRNKDPTRRPELEAGTNGRSSTTSPFVKPNPGSSTDGNSAGHSGNNILGSEVALFA		binds	binds	no binding (tested: 50 nM B2-AP; 10-500 ng B4-ECD protein)	binds	binds	binds
